assay: soluble on expression in E. coli; label from the status in PepcDB or PDB records

Sequence	soluble on expression in E. coli
MARVTTGITSSHIPALGAAIQTGTSDNDYWGPVFKGYQPIRDWIKQPGNMPDVVILVYNDHASAFDMNIIPTFAIGCAETFKPADEGWGPRPVPDVKGHPDLAWHIAQSLILDEFDMTIMNQMDVDHGCTVPLSMIFGEPEEWPCKVIPFPVNVVTYPPPSGKRCFALGDSIRAAVESFPEDLNVHVWGTGGMSHQLQGPRAGLINKEFDLNFIDKLISDPEELSKMPHIQYLRESGSEGVELVMWLIMRGALPEKVRDLYTFYHIPASNTALGAMILQPEETAGTPLEPRKVMSGHSLAQA	soluble
MASAAKGKILAVIGDEDTVVGFLLGGVGELNKARKPNYLIVDKQTTVQEIEEAFNGFCARDDIAIILINQHIAEMIRYAVDNHTQSIPAVLEIPSKEAPYDPSKDSILNRARGLFNPEDFR	soluble
MASFCNSWKRKHNEAIKLSEEIDGMILERSSLAETSSYARGHASYMRRKITILANGVQTLKNLLAESQGKSISAKEMSRCKDMVEDLRSKAYQMASALDMLKFSNIGSLLGQDDIMSRVIDMDNQEIVGFQRTTMKGKLKGVMHLKREALAMNMELGLQTRLIDRLDHHVDVSASDVEELQRSIDTGVCMTLLLSVVVVVFGLSEFVKFGRRRILG	soluble
MASFRSTLALVNSAKLSLSTRTMASHPLAGLLGKLNHVAIATPDLKKSSEFYKGLGAKVSEAVPQPEHGVYTVFVELPNSKIELLHPFGEKSPIQAFLNKNKDGGMHHICIEVRDIHEAVSAVKTKGIRTLGEKPKIGAHGKEVMFLHPKDCGGVLIELEQE	not soluble
MASFTSPDIDEKLAILHREMASLRVECDRLLNKHLIVEHTLSQSCSGWPNGAADTSSAYNTGGESCRSVSVTPDGVFIPTTSNSQMIQSQPSPRVLRRTVKMASPAVQRRLVPQNLPTSSSSRPPTVLLPHDSPEQPSRPIHRMHQELPIPEDVVSMVSSNKTQRSIIRAPSAVFGALKGSSLRKLSISRNIQMTTKVNKEESDRKEKEAEEYAKRFRIPSYSVVLKEEKRKSSFRIPVPHYFRSSKAKSKVYQVDAPDEEIEEVIDEEKMAAKTDLGDTTVHYKWKVKRRCDGSRYIVKRPIRSQILKKREAQVYRERAPISTDDDAMSELKLGRYHTKEERKRILERENTKKMLKLQQKMMEKAHPSEQVIYQMSQQKLARQKDAMVMDEFVTTREVLSSRTRPDGIHGVVSVTTV	not soluble
MASKSRILQLKGTGLKKVPDEIEPLADVLRNLELSENKIREIPIFIGQFSQLKQLHLANNCLEFLPDELGSMKKLEILNLAGNKLKALPDTIVGCTDLKTIDLSSNVFTVFPVAVIGCLQLDILNLNGNQIESLPDDISNLKVIELSLNQNRLSSLNPSNLAKTTRLRTLRLDENCLEKSEFTRDLLESSTISVMSYDGNRFQLKDFQDLPGYDAYQERFTATKRKI	not soluble
MASMKKSTENESTNYQYKIQELRKLLKSLLLNYLELIGVLSINPDMYERKVENIRTILVNIHHLLNEYRPHQSRESLIMLLEEQLEYKRGEIREIEQVCKQVHDKLTS	soluble
MASNFKKANMASSSQRKRMSPKPELTEEQKQEIREAFDLFDADGTGTIDVKELKVAMRALGFEPKKEEIKKMISEIDKEGTGKMNFGDFLTVMTQKMSEKDTKEEILKAFKLFDDDETGKISFKNLKRVAKELGENLTDEELQEMIDEADRDGDGEVSEQEFLRIMKKTSLY	soluble
MASPAAGDVLIVGSGLVGRSWAMLFASGGFRVKLYDIEPRQITGALENIRKEMKSLQQSGSLKGSLSAEEQLSLISSCTNLAEAVEGVVHIQECVPENLDLKRKIFAQLDSIVDDRVVLSSSSSCLLPSKLFTGLAHVKQCIVAHPVNPPYYIPLVELVPHPETSPATVDRTHALMRKIGQSPVRVLKEIDGFVLNRLQYAIISEAWRLVEEGIVSPSDLDLVMSDGLGMRYAFIGPLETMHLNAEGMLSYSDRYSEGMKRVLKSFGSIPEFSGATVEKVNQAMCKKGPADPEHLAARREWRDECLKRELAKLKRQMQPQ	soluble
MASPENVILVHEISKLKTKEELWNPYEWYQFMRDNHPVHYDDEQDVWNVFLYDDVNRVLSDYSLFSSRRERRQFAIPPLETRININSTDPPEHRNVRSIVSKAFTPRSLEQWKPRIQSIANELVKDIENCSEVDIVEQFAAPLPVTVISDLLGVPTTDRKKIKAWSDILFMPYSKEKFNDLDAEKGIALNEFKAYLLPIVQEKRYHLTDDIISDLIRAEYEGERLTDEEIVTFSLGLLAAGNETTTNLIINSFYCFLVDSPATYKEVREKPKLISKAVEEVLRYRFPVTLARRITEDTNIFGPLMKKDQMVVAWVSAANLDEKKFSQASKFNIHRIGNEKHLTFGKGPHFCLGAPLARLEAEIALTTFINAFEKIALSPSFNIEQCILENEQTLKFLPIRLKPQ	not soluble
MASQGFSVYVGNVPYQGTEEEIGNYFAAVGHVNNVRIVYDRETGRPRGFAFVEFSEEAGAQRAVEQLNGVAFNGRNLRVNYANK	soluble
MASSSATLSLCSTFSAHCNVNSRRSSTILCSLSKPSLNLAKPLTGFLSPSTASTSRTAFTVAPKFAESVVEAEPETTDIEAVVVSDVSEVTEEKAKREEIFAVIMVGGRQYIVFPGRYLYTQRLKDANVDDQIVLNKVLLVGTKTHTYIGKPVVTNATVHAVVESQGLNDKVVVFKYKPKKKYRRNIGHRQPNTRIRITGITGYEEYPASPNVAVGEVNLLEHHHHHH	not soluble
MASSSSLSLSFPSSSLSRTWDYDVFPSFHGEDVRKAFLSQILKKEFGRKAINFFVDHEMERGEFIGPVLKQAIKGSKIALVLLSKNYASSWCCLDELVEIMKKESGQTVITIFYEVDPNEVKKQTGDFGKAFKETCQGKTEEKVQTWRKALEGVGLATIAGFHSSNWFVFFI	not soluble
MASVPTHQSEKEKKNDELSTAILKDKVKPNRLIVDQSEQDDNSVIAVSQAKMDELGLFRGDAVILKGKKRKESVAIIVSDESCPNEKVRMNRVVRNNLRIRLGDVVSITPAPNLSYGTRIHVLPIDDTIEGLTGNLFDVFLKPYFLEAYRPLHKGDIFTVQAAMRTVEFKVVETEPAPACIVSPDTMIHYEGDPIKREEEEESMNDIGYDDLGGVRKQLAQIKEMVELPLRHPQLFKAIGIKPPRGILLFGPPGTGKTLIARAVANETGSFFFLINGPEVMSKMSGESESNLRKAFEECEKNQPAILFIDEIDAIAPKREKTNGEVERRIVSQLLTLMDGVKGRSNLVVIAATNRPNSIDGALRRFGRFDREIDIGIPDAVGRLEILRIHTKNMKLADDVDLEQIANECHGFVGADLASLCSEAALQQIREKMELIDLEDDQIDAEVLNSLAVTMENFRFAQGKSSPSALREAVVETPNTTWSDIGGLQNVKRELQELVQYPVEHPEKYLKFGMQPSRGVLFYGPPGCGKTLLAKAIANECQANFISIKGPELLTMWFGESEANVRDVFDKARAAAPCVLFFDELDSIAKARGGGAGGDGGGASDRVINQVLTEMDGMNAKKNVFIIGATNRPDIIDPAVLRPGRLDQLIYIPLPDEASRHQILKASLRKTPLSKDLDLTFLAKNTVGFSGADLTEICQRACKLAIRESIEKEIRIEKERQDRQARGEELMEDDAVDPVPEITRAHFEEAMKFARRSVTDNDIRKYEMFAQTLQQSRGFGNNFKFPGEQRGSDAPSAPVPAQDDDDLYN	soluble
MATEAVYGSWDSPITPDLFGKCNCKSICEMQVVGGNVYWIEQNSVTGKRELYSKPTNGDTRTRWADGQSVQTAIHEYGGGALHVLADGSVLFATIEGVFYQKSADSGVEQLAEGNNRMFRFSDFSATDTHVFCVNETHQADAKFPENRLISIDRATKNQNVIAHGADFYAYPRVSPDGKKLVWMQWSLPNMPWDETSIRMADLKGGESSNEVTLKDGTGKQINYSEPTWDGDELLTVNDSTNWWNVYKSAAEPNSVEKNLNPIQREISYPLWQLGFRNYVLNKKYLVMNADGILYVRSGDVTVEIPTPGYTVFGYLSLDQNGSDLFAIASGPKRASSVISIDLANKNFPLKVHRESRDSSEIDALEISEPEEFVFKSDGVDVSAGTLPPVLLLGHGGPTAPAQNNLDLKKQFFTSRGIAVFDVNYRGSTGFGTEFRRMLYKNCGVADRDDMLNGAKALVEQGKVDAEKVLITGSSSGGYLILSCLISPKNIIKAAVSVYGVADLLALDEDTHKLERCYNEMLIGKYPEQASIYEERSPIYHIDKIRTPIAFLHGREDTVVPMSQSITMYEKIRASGVTTALMLFDGEGHGFRNGQVIKESTEATFYFLMKAVGIEPSISSKIEIVNPKH	not soluble
MATGGLAIIQSMKHKLPPSERKLADYILAHPHKAIESTVNEISALANSSDAAVIRLCKSLGLKGFQDLKMRVAGDLAKPTFQGYRDIVPHEPLPSISEKTAGNAIQAI	soluble
MATLTEDDVLEQLDAQDNLFSFMKTAHSILLQGIRQFLPSLFVDNDEEIVEYAVKPLLAQSGPLDDIDVALRLIYALGKMDKWLYADITHFSQYWHYLNEQDETPGFADDITWDFISNVNSITRNATLYDALKAMKFADFAVWSEARFSGMVKTALTLAVTTTLKELTP	soluble
MATNRSRRLRKKLCVDEFQELGFELNFHYKEGVDADAVNAFMLRFIDQAIEANELTYGGCDEFGFVCLARRGSVNEEQRALIEAWLKQQPELASVEVGALVDAWYPEQPVLPKL	not soluble
MATPAFVKRITRSDAVLSLGVNFSKIYFKFVMWTGRYDRQAVPIPEPYILAMWHGRLIMAPMLQTKSKPLVALISGHRDGKIISRVGAAFGIQTAVGSSSKGGMRAAREMMRLGKSGHSLFVTPDGPRGPRMRINSEGVLDMARLTGLPILPVSVSLSRHKLLRSWDRLMLPGLFAKVAIRFGEPITVEAGSPTAEMAERLQAALTAAQNETDRIVGLQPVETALEHHHHHH	soluble
MATPSTGANNSIPAVRNQVEVQVGLVGDAQVGKTSLMVKYVQNIYDKEYTQTLGVNFLKRKVSIRSTDIIFSIMDLGGQREFINMLPIATVGSSVIIFLFDLTRPETLSSIKEWYRQAYGLNDSAIPILVGTKYDLLIDLDPEYQEQISRTSMKYAQVMNAPLIFCSTAKSINIQKIFKIALAKIFNLTLTIPEINEIGDPLLIYKHLGGQQHRHHNKSQDRKSHNIRKPSSSPSSKAPSPGVNT	soluble
MATSKLQALWNHPAGPKTIHFWAPTFKWGISIANIADFQKPPENISYLQQIAVTCTGMIWCRCSTIITPKNWNLFSVNVAMAATGIYQLTRKIKYDYVSEAEAAVEIEG	not soluble
MATSMTDIKGFNMISIEQEKELGNKFAVEIEKQQQPVNDPEVQRYVDKVGKRLLSGARAVEFDYVFKVVKDDSVNAFAIPGGRVYVHTGLLKAADNETELAGVLAHEINHAVARHGTRQMTQEYGYSLVLSLVLGDNPNMLAQLAGQLFGKAGMMSYSREYENQADFLGVETMYKAGYNPNGLTSFFQKLNAMDGGTQSNVARFFSTHPLTSERIQRVQAEIAKLPPQRYLTDETEFKKIKGRLKLEHHHHHH	soluble
MATVIHNPLKALGDQFYKEAIEHCRSYNSRLSAERSVRLPFLDSQTGVAQNNCYIWMEKRHRGPGLAPGQLYTYPARCWRKKRRLHPPEDPKLRLLEIKPEVELPLKKDGFTSESTTLEALLRGEGVEKKVDAREEESIQEIQRVLENDENVEEGNEEEDLEEDIPKRKDRTRGRARCPLPSLHCFSSLPSAVIDAKEWGGGGKWEATVAYRKKKIYPVHIFNMLEHHHHHH	not soluble
MAVELRYDEEAVFLRRVNRFVVEVKSSRGVVRCHLMDTGRIDHLASPGRRGVLIAWLNRLGGKTVCRAQAFKTAGGVVAVVDSRVPNRLFAEAAPMVVGGDASIEAEREVFGSRLDFLISTGRGLWAVEVKGVNLSLDGVGLFPNAPSARAVKHLEVLARLAREGVKPLMAFVALRPDIRVFAPNYRVDRRFASLACTLLRRGLVGMVGIRVSIDLEPGVVRIRPVATAPVQCPPLQPGR	soluble

From the DeepSol protein solubility set
